The values below are quoted from earlier work in paper PMC5536120.

For series [1], the target named is Fibrin central fragment central region (knobs A) (Homo sapiens) (UniProt P02671).
For series [2], the target named is knob B peptide GHRP (Homo sapiens) (UniProt P02675).
Sequence of UniProt P02675 (P02675 whole entry, looked up, tested part not stated): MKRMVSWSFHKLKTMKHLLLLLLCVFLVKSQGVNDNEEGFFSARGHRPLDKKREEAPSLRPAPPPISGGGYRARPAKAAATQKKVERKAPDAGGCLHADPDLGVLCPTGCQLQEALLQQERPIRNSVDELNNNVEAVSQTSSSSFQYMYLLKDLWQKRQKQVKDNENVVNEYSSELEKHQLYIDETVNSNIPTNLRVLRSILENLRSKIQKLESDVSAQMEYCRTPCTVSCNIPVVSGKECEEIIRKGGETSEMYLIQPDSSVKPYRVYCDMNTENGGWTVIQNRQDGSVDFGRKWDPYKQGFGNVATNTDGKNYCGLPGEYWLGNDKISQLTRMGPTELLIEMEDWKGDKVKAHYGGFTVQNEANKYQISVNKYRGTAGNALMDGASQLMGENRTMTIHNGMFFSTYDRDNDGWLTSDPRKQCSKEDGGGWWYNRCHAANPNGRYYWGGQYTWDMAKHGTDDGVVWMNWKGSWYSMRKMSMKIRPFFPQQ

As to Fibrinogen (from UniProt P02671), the dissociation constant Kd in series [1] was 5.8 µM; in series [2] it was 140 µM.

What is called Kd is the constant that tells how readily two partners part at equilibrium.
